Data: patent US20230233707A1

Target: CD40 (UniProt P25942)
Experiment: cell-based or functional assay

EC50 from CD40 activation experiments (bioluminescent CD40 effector CHO cell assay): -1.47 log(µM)
Substance: LOB7/6 (antibody)
